Assay results as given in patent US20130302346A1 (LEXICON PHARMACEUTICALS, published 2013).

T1: Human NOTUM R144A/R145A (human, UniProt Q6P988 20-496)
T1 construct: Alanine mutant, expressed and secreted after transient transfection
T1 sequence: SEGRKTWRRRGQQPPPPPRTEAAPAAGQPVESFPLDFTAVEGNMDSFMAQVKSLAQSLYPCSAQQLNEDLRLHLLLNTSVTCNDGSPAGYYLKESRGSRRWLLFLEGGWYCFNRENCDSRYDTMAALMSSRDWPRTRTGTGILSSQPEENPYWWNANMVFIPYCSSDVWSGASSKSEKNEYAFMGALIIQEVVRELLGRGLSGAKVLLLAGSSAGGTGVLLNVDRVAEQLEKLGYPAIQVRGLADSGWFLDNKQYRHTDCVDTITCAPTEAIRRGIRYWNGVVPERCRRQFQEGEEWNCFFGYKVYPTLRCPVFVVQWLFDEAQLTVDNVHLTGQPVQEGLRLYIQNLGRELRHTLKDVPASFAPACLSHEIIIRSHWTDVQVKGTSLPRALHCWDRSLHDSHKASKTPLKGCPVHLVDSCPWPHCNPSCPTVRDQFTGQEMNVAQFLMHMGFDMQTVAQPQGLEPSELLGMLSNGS

T2: Human NOTUM D141S (human, UniProt Q6P988 20-496)
T2 construct: Point mutant made by transient transfection
T2 sequence: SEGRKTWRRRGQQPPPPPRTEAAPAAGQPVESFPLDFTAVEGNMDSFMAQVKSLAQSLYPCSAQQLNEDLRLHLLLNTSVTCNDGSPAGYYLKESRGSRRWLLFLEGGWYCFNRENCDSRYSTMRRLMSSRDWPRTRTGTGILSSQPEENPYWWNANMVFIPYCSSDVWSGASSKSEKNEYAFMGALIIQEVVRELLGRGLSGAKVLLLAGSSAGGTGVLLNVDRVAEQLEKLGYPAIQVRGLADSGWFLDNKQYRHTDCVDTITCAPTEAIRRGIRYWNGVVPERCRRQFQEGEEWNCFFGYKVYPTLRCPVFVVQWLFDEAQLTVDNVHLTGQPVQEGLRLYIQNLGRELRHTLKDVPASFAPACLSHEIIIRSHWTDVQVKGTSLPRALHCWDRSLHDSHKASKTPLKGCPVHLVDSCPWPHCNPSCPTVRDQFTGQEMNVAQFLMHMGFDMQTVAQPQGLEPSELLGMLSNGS

T3: H-M-H
T3 construct: Drawn on the sheet as human up to the M177 line, a mouse middle segment, then a human C-terminal part; Conditioned medium from transfected HEK293F; also called Human-mouse-human chimeric NOTUM
T3 single chain: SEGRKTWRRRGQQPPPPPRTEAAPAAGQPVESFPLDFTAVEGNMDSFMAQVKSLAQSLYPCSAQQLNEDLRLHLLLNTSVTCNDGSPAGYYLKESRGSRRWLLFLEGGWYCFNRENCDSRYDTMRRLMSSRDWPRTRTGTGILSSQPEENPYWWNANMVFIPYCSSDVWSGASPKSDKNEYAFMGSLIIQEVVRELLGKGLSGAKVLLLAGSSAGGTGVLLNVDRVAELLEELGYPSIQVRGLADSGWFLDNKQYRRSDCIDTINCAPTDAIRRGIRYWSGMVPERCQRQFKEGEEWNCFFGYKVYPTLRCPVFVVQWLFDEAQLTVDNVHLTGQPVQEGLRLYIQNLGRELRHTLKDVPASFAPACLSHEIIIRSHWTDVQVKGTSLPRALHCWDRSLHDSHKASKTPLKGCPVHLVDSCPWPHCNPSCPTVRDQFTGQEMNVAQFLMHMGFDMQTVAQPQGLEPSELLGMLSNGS

T4: M-H-M
T4 construct: Drawn on the sheet as mouse up to the M177 line, a human middle segment, then a mouse C-terminal part; Conditioned medium from transfected HEK293F; also called Mouse-human-mouse chimeric NOTUM
T4 single chain: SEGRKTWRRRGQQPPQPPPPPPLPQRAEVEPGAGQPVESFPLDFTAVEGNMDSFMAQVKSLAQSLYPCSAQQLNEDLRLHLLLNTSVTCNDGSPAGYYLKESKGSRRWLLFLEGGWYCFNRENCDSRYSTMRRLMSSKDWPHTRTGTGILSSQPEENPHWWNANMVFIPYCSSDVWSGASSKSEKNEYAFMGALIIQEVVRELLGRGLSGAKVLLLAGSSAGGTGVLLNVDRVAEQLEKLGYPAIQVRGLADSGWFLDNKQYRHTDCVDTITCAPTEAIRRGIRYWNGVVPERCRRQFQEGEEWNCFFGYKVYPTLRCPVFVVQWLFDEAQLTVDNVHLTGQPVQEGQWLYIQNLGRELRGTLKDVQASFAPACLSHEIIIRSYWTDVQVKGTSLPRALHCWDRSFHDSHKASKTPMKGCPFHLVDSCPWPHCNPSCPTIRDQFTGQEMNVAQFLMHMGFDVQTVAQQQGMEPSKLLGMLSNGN

T5: H(S232A)
T5 construct: The catalytic triad serine is drawn as A on the sheet; also called Human NOTUM S232A
T5 single chain: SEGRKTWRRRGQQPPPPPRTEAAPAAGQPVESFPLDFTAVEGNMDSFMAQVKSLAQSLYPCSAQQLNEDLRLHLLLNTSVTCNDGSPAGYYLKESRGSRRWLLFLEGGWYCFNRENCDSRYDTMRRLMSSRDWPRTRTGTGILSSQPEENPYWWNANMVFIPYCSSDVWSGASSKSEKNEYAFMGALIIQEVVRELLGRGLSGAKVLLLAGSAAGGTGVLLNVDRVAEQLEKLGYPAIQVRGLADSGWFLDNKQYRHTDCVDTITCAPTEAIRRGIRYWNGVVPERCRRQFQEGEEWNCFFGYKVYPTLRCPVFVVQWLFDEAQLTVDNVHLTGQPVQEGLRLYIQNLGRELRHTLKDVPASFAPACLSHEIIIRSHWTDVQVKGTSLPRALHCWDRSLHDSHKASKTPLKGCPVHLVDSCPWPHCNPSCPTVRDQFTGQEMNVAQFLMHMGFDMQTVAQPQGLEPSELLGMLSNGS


Experiments:
[1] = target: T1, Human NOTUM R144A/R145A; assay: ELISA
[2] = target: T2, Human NOTUM D141S; assay: ELISA
[3] = target: T3, H-M-H; assay: ELISA on conditioned medium of HEK293F transfected with the NOTUM construct (Example 6.7)
Text: (§1) The sequences of those proteins are shown in Section 7 (Table of Sequences). The conditioned media were used in ELISA format to determine antibody specificity. […] Within this region, mouse and human NOTUM differ at five positions (R115K, D141S. R150K, R154H, and Y171H, based on the human sequence numbering). Human NOTUM point mutants were generated by transient transfection of constructs expressing human NOTUM with the mouse amino acid at each of these five positions and the point mutants were all shown to be functional in the OPTS assay.

[4] = target: T4, M-H-M; assay: as above
Text: as §1

[5] = target: T5, H(S232A); assay: as above
Text: as §1

binding result [1]	binding result [2]	binding result [3]	binding result [4]	binding result [5]	Binder
no binding	no binding	binds	no binding	binds	MAb 1.802 (antibody, V domains shown, Mouse monoclonal antibody from Campaign 1 (raised against human NOTUM), IgG1) VH: EVQLVESGGGLVKPGGSLKLSCAASGFTFSDYGMHWFRQAPEKGLEWVAYISSGSRTVYYADTVKGRFTISRDNAKNTLSLQMTSLRSEDTAMYYCARKHYNGGYFDVWGTGTTVTVSS VL: DIVLTQSPASLAVSLGQRATISCRASKIVSTSGYSYMHWYQQKPGQPPKLLIYLASNLESGVPARFSGSGSGTDFTLNIHPVEEEDAATYYCQHSRELPPTFGSGTKLEIKR
no binding	no binding	binds	no binding	binds	MAb 1.846 (antibody, IgG2b, V domains shown, Mouse monoclonal antibody from Campaign 1, IgG2b) VH: EVQLVESGGDLVKPGGSLKLSCAASGFTFSDYGMHWLRQAPEKGLEWVAYISSGSTTLSYANTMKGRFTISRDNAKKTLSLQMTSLRSEDTAIYYCARKNYNGGYFDVWGTGTTVTVSS VL: DIVLTQSPASLVVSLGQRATISCRASKSVSESGYSYMHWYQQKPGQPPKLLIYLASNLESGVPARFSGSGSGTDFTLNIHPVEEGDATTYYCQHSRVLPPTFGSGTKLEIKR
no binding	no binding	binds	no binding	binds	MAb 1.815 (antibody, IgG1, V domains shown, Mouse monoclonal antibody from Campaign 1, IgG1) VH: DVQLLESGGGLVQPGGSRKLSCAASGFTFSDFGMHWVRQAPEKGLEWVAYSSSGGTTVYYADTVKGRLTLSRDNSKNTLFLEMTSLRSEDTAMYYCARASYDGGYFDCWGQGTSLTVSS VL: DIVLTQSPASLAVSLGQRATISCRASKSVSTSGYSYIHWYQQKPGQPPKLLIYLASDLESGVPARFSGSGSGAAFTLNIHPVEEEDAATYYCHHSRELPFTFGSGTKLEIKR
